Source: patent US20120316071A1 (published 2012)
Positions count from the first letter of the chain named. Numbers in names are those of the source. Blank lines part the entries; values can stand above or below the binder they belong to.

Tests used:
[1] = target: T1, rHuman Erythropoietin R/Fc Chimera, CF (R&D Systems Cat#963-ER) (human, UniProt P19235 25-250); assay: ECL multispot (MSD) binding assay, antigen spotted on plate, Fab 0.04 uM;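 also: purified Fab incubated 1 h at 20 °C on antigen spots, detected via TAG-labelled antibody, ECL read against each well's blank, with signal-to-blank of at least 4 scored as binder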
T1 construct: Bought recombinant protein; also called EPO R; EPO R/Fc; Fc part of the bought chimera not given
T1 sequence (looked up): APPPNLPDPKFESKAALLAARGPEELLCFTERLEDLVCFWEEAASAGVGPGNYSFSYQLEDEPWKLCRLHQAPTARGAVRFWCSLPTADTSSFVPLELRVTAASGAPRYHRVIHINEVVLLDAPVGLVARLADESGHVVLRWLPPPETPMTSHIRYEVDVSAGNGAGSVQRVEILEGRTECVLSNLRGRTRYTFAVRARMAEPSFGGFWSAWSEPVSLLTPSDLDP

[2] = target: T2, Recombinant Human DLL4 (R&D Systems Cat#1506-D4/CF) (human, UniProt Q9NR61 27-524); assay: as above
T2 construct: Bought recombinant protein; also called delta-like protein 4; rHuman DLL4

[3] = target: T3, rHuman Notch-1/Fc Chimera, CF (R&D Systems Cat#3647-TK) (human, UniProt P46531 19-526); assay: as above
T3 construct: Bought recombinant protein; Fc part of the bought chimera not given

[4] = target: T4, rHuman EGF R/Fc Chimera, CF (R&D Systems Cat#344-ER) (human, UniProt P00533 25-645); assay: as above
T4 construct: Bought recombinant protein; also called epidermal growth factor receptor; Fc part of the bought chimera not given

[5] = target: T5, rHuman CD44/Fc Chimera, CF (R&D Systems Cat#3660-CD) (human, UniProt P16070 21-220); assay: as above
T5 construct: Bought recombinant protein; Fc part of the bought chimera not given

[6] = target: T6, rHuman P-Cadherin/Fc Chimera, CF (R&D Systems Cat#861-PC) (human, UniProt P22223 108-654); assay: as above
T6 construct: Bought recombinant protein; Fc part of the bought chimera not given

[7] = target: T7, rHuman IGF-1 sR, CF (R&D Systems Cat#391-GR) (human, UniProt P08069 31-932); assay: as above
T7 construct: Bought recombinant soluble receptor; also called insulin-like growth factor-1 soluble receptor

[8] = target: T8, rHuman ErbB2/Fc Chimera, CF (R&D Systems Cat#1129-ER) (human, UniProt P04626 23-652); assay: as above
T8 construct: Bought recombinant protein; also called human epidermal growth factor 2 receptor; Fc part of the bought chimera not given

[9] = target: T9, rHuman HGF R/c-MET/Fc Chimera, CF (R&D Systems Cat#358-MT/CF) (human, UniProt P08581 25-932); assay: as above
T9 construct: Bought recombinant protein; also called HGF R/Fc; hepatocyte growth factor receptor; Fc part of the bought chimera not given
T9 sequence (P08581 25-932, change not shown): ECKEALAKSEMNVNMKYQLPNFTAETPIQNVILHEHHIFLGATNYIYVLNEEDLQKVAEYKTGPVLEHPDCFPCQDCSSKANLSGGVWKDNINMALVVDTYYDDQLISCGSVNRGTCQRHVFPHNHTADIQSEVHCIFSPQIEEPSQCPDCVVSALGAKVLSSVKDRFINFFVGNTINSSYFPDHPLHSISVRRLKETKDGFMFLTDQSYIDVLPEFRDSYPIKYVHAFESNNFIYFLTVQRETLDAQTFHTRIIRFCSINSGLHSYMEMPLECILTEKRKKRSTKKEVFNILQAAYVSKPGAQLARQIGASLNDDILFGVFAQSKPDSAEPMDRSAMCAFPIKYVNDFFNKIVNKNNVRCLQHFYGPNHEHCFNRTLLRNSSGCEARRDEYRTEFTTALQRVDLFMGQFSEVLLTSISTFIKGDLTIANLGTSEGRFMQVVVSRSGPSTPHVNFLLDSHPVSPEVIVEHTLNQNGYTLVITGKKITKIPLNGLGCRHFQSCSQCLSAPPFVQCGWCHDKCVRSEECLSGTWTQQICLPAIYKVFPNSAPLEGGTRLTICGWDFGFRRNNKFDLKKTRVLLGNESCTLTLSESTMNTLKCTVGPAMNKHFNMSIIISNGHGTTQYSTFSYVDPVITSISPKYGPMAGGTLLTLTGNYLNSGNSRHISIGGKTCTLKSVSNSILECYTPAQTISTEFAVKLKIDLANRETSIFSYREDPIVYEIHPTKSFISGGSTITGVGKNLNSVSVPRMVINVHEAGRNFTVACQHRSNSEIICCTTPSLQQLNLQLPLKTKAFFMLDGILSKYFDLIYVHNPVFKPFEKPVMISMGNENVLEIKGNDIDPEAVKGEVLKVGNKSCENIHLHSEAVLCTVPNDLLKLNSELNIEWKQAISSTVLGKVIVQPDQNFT

[10] = target: T10, Recombinant Human DLL4 (delta-like protein 4) (human, UniProt Q9NR61 27-524); assay: SPR, Fab on recombinant human DLL4; (±8.5) at r15c5
T10 construct: Bought recombinant protein; also called rHuman DLL4; Delta-like 4

[11] = target: T10, Recombinant Human DLL4 (delta-like …); assay: SPR, Fab on recombinant human DLL4; column head x10^5 applied; (±6.24) at r15c3
[12] = target: T10, Recombinant Human DLL4 (delta-like …); assay: SPR, Fab on recombinant human DLL4; column head x10^-3 applied as printed, but KD x ka implies 0.0717 s^-1 unscaled; (±0.00351) at r15c4
[13] = target: T10, Recombinant Human DLL4 (delta-like …); assay: SPR, Fab on recombinant human DLL4; (±7) at r11c5
[14] = target: T10, Recombinant Human DLL4 (delta-like …); assay: SPR, Fab on recombinant human DLL4; column head x10^-3 applied as printed, but KD x ka implies 0.023 s^-1 unscaled; (±0.004) at r11c4
[15] = target: T10, Recombinant Human DLL4 (delta-like …); assay: SPR, Fab on recombinant human DLL4; column head x10^5 applied; (±0.092) at r11c3
[16] = target: T11, Recombinant Human DLL4 (delta-like protein 4) (human, UniProt Q9NR61 27-524); assay: ECL (MSD) binding assay, Fab on immobilised recombinant human DLL4
T11 construct: also called rHuman DLL4; Delta-like 4

[17] = target: T11, Recombinant Human DLL4 (delta-like …); assay: ELISA, Fab on plate-coated recombinant human DLL4
[18] = target: T10, Recombinant Human DLL4 (delta-like …); assay: SPR, Fab on recombinant human DLL4; column head x10^5 applied; (±0.6) at r13c3
[19] = target: T10, Recombinant Human DLL4 (delta-like …); assay: SPR, Fab on recombinant human DLL4; column head x10^-3 applied as printed, but KD x ka implies 0.0845 s^-1 unscaled; (±0.0050) at r13c4
[20] = target: T10, Recombinant Human DLL4 (delta-like …); assay: SPR, Fab on recombinant human DLL4; (±6) at r13c5
[21] = target: T10, Recombinant Human DLL4 (delta-like …); assay: SPR, Fab on recombinant human DLL4; (±9.3) at r18c5
[22] = target: T10, Recombinant Human DLL4 (delta-like …); assay: SPR, Fab on recombinant human DLL4; column head x10^-3 applied as printed, but KD x ka implies 0.101 s^-1 unscaled; (±0.0153) at r18c4
[23] = target: T10, Recombinant Human DLL4 (delta-like …); assay: SPR, Fab on recombinant human DLL4; column head x10^5 applied; (±4.16) at r18c3
[24] = target: T10, Recombinant Human DLL4 (delta-like …); assay: SPR, Fab on recombinant human DLL4; (±200) printed at r9c5; ka and kd printed n/a
[25] = target: T12, Recombinant Human DLL4 (R&D Systems Cat#1506-D4/CF) (human, UniProt Q9NR61 27-524); assay: ECL (MSD) binding assay, DLL4 coated on plate, Fab 0.04 uM
T12 construct: Bought recombinant human DLL4 coated on the ECL plate; also called delta-like protein 4; Delta-like 4

- ECL signal [1]: 584
- ECL signal [2]: 15100
- ECL signal [3]: 700
- ECL signal [4]: 1050
- ECL signal [5]: 708
- ECL signal [6]: 359
- ECL signal [7]: 1100
- ECL signal [8]: 1380
- ECL signal [9]: 1230
B1: Fab VH5-51_IGHD5-18*01>3_IGHJ4*01 G100K/G104T (H:KT) & V3-4_IGLJ1*01 I98A (Fab, V domains shown)
VH: EVQLVQSGAEVKKPGESLKISCKGSGYSFTSYWIGWVRQMPGKGLEWMGIIYPGDSDTRYSPSFQGQVTISADKSISTAYLQWSSLKASDTAMYYCARRKYSYTYDYFDYWGQGTLVTVSS
VL: QTVVTQEPSFSVSPGGTVTLTCGLSSGSVSTSYYPSWYQQTPGQAPRTLIYSTNTRSSGVPDRFSGSILGNKAALTITGAQADDESDYYCVLYMGSGASYVFGTGTKVTVL
notes: Fab; Expressed from Plasmid A (CH1, His6 and Flag tags) and Plasmid E (lambda CL); also called KT & I98A

- kon [18]: 740000 M⁻¹ s⁻¹
- koff [19]: 8.45e-05 s⁻¹
- Kd [20]: 114 nM
B5: Fab VH5-51_IGHD5-18*01>3_IGHJ4*01 G100K/G104T S28R & V3-4_IGLJ1*01 (Fab, V domains shown)
VH: B1 VH with S28R
VL: B1 VL with A98I
notes: Fab made in E. coli; VH was cloned in Plasmid A (CH1, His6 and Flag tags) and VL in Plasmid E (lambda CL); also called KT S28R; H:KT S28R & L:wt

- Signal/Noise [25]: 3.1
B8: Fab VH5-51_IGHD5-18*01>3_IGHJ3*01 & V3-4_IGLJ1*01 (Fab, V domains shown)
VH: B1 VH with K100G, T104G, Y107A, Y110V
VL: B1 VL with A98I
notes: Fab; the JH germline segment IGHJ4*01 of the parent is swapped for IGHJ3*01; Constant parts come from Plasmid A (CH1, His6, Flag) and Plasmid E (lambda CL); also called J-swap mutant IGHJ3*01

More lines, now with the values behind:

B2: Fab VH5-51_IGHD5-18*01>3_IGHJ4*01 G100K/G104T G24T/S28R/G35V & V3-4_IGLJ1*01 (Fab, V domains shown)
VH: B1 VH with G24T, S28R, G35V
VL: B1 VL with A98I
notes: Fab made in E. coli; VH was cloned in Plasmid A (CH1, His6 and Flag tags) and VL in Plasmid E (lambda CL); also called KT TRV; H:KT TRV & L:wt
- Kd [10]: 36.2 nM
- kon [11]: 2.09e+06 M⁻¹ s⁻¹
- koff [12]: 7.17e-05 s⁻¹

B3: Fab VH5-51_IGHD5-18*01>3_IGHJ4*01 G100K/G104T & V3-4_IGLJ1*01 (Fab, V domains shown)
VH: B1 VH
VL: B1 VL with A98I
notes: Fab made in E. coli; VH was cloned in Plasmid A (CH1, His6 and Flag tags) and VL in Plasmid E (lambda CL); also called KT; H:KT & L:wt
- Kd [13]: 355 nM
- koff [14]: 2.3e-05 s⁻¹
- kon [15]: 64500 M⁻¹ s⁻¹

B4: Fab VH5-51_IGHD5-18*01>3_IGHJ4*01 G100K/G104T (H:KT) & V3-4_IGLJ1*01 G23R (Fab, V domains shown)
VH: B1 VH
VL: B1 VL with G23R, A98I
notes: Fab (CH1 with His6/Flag tags from Plasmid A, lambda CL from Plasmid E); also called G100K/G104T & G23R
- ECL signal [16]: 68200
- ELISA signal [17]: 0.11

B6: Fab VH5-51_IGHD5-18*01>3_IGHJ4*01 G100K/G104T G24T/S28R/G35V & V3-4_IGLJ1*01 M94R/S96M (Fab, V domains shown)
VH: B1 VH with G24T, S28R, G35V
VL: B1 VL with M94R, S96M, A98I
notes: Fab made in E. coli; VH was cloned in Plasmid A (CH1, His6 and Flag tags) and VL in Plasmid E (lambda CL); also called H:KT TRV & L:RM
- Kd [21]: 40.3 nM
- koff [22]: 0.000101 s⁻¹
- kon [23]: 2.53e+06 M⁻¹ s⁻¹

B7: Fab VH5-51_IGHD5-18*01>3_IGHJ4*01 & V3-4_IGLJ1*01 (Fab, V domains shown)
VH: B1 VH with K100G, T104G
VL: B1 VL with A98I
notes: Germline Fab made in E. coli; also called parental; wildtype
- Kd [24]: 4800 nM
